{"source": "patent US20190002500A1", "about": "“NOVEL a4B7 PEPTIDE DIMER ANTAGONISTS” (Protagonist Therapeutics, Inc., priority 2013, published 2019)", "key": {"FIG. 3": {"assay": "FIG. 3", "from_the_text": "Table printed on a drawing sheet, FIG. 3\nFirst reader's note: The sequence is split into one residue per column (positions 4-11 plus one unnumbered column), and SEQ ID 39 is printed twice."}, "[1]": {"assay": "Simulated Intestinal Fluid (SIF) Stability Assay", "type": "in vitro ADME", "settings": "for stability in simulated intestinal fluids (SIF): substitution of Cys with Pen, compared to SEQ ID NO: 46 with Cys", "protocol": "Simulated Intestinal Fluid (SIF) Stability Assay\nStudies were carried out in simulated intestinal fluid (SIF) to evaluate gastric stability of the dimer molecules of the instant invention. SIF was prepared by adding 6.8 g of monobasic potassium phosphate and 10.0 g of pancreatin to 1.0 L of water. After dissolution, the pH was adjusted to 6.8 using NaOH. DMSO stocks (2 mM) were first prepared for the test compounds. Aliquots of the DMSO solutions were dosed into 6 individual tubes, each containing 0.5 mL of SIF, which had been pre-warmed to 37° C.\nThe final test compound concentration was 20 μM. The vials were kept in a benchtop Thermomixer® for the duration of the experiment. At each timepoint (0, 5, 10, 20, 40, and 60 minutes), 1.0 mL of acetonitrile containing 1% formic acid was added to one vial to terminate the reaction. Samples were stored at 4° C. until the end of the experiment. After the final timepoint was sampled, the tubes were mixed and then centrifuged at 3,000 rpm for 10 minutes. Aliquots of the supernatant were removed, diluted 1:1 into distilled water containing internal standard, and analyzed by LCMS/MS. Percent remaining at each timepoint was calculated based on the peak area response ratio of test to compound to internal standard. Time 0 was set to 100%, and all later timepoints were calculated relative to time 0. Half-lives were calculated by fitting to a first-order exponential decay equation using Graphpad. A small sampling of the results of these studies is provided and discussed in connection FIG. 3, above."}}, "note": "Where a SMILES comes first, the peptide text is derived from it. Bridges are numbered along the chain shown (N, C = ends). Where no end group is shown, it is not given here. [ ]: non-standard residue; d: D form. NMeR = CN[C@@H](CCCNC(=N)N)C(=O)O; Pen = CC(C)(S)[C@H](N)C(=O)O"}
{"molecule": "CC(=O)N[C@H]1CSSC[C@@H](C(N)=O)NC(=O)[C@H](CC(C)C)NC(=O)[C@H]([C@@H](C)O)NC(=O)[C@H](CC(=O)O)NC(=O)[C@H](CO)NC(=O)[C@H](CCCNC(=N)N)NC1=O", "note": "[compound 39, Ac-C R S D T L C-NH2] (Ac-CRSDTLC-NH2; disulfide 1-7)", "values": [{"measurement": "SIF Stability (Half-Life, Min)", "setting": "FIG. 3", "result": "<1", "unit": "min"}]}
{"molecule": "SEQ ID NO: 46: integrin antagonist homodimer of monomer subunit SEQ ID NO: 46 (Cys, N-terminally dimerized); N(alpha)Methylated and non-methylated variations (CRSDTLC; disulfide 1-7; not fully specified (residue 2); also: homodimer linked at N-termini) [listing 1 of 2 here]", "values": [{"measurement": "SIF Stability (Half-Life, Min)", "setting": "FIG. 3", "result": 73, "unit": "min"}]}
{"molecule": "SEQ ID NO: 46: integrin antagonist homodimer of monomer subunit SEQ ID NO: 46 (Cys, N-terminally dimerized); N(alpha)Methylated and non-methylated variations (CRSDTLC; disulfide 1-7; not fully specified (residue 2); also: homodimer linked at N-termini) [listing 2 of 2 here]", "values": [{"measurement": "half-life in SIF", "setting": "[1]; substitution of arginine with N-Me-Arg, N(alpha)Methylated vs non-methylated variation", "result": "increased half-life substantially"}]}
{"molecule": "SEQ ID NO: 55: integrin antagonist homodimer of monomer subunit SEQ ID NO: 55, Cys substituted with Penicillamine (Pen) (C[NMeR]SDTL[Pen][dK]; disulfide 1-7; also: homodimer, link not given here)", "values": [{"measurement": "stability in simulated intestinal fluids (SIF)", "setting": "[1]", "result": "increased stability significantly"}]}
{"molecule": "SEQ ID NO: 74: integrin antagonist homodimer of monomer subunit SEQ ID NO: 74, Cys substituted with Penicillamine (Pen) (C[NMeR]SDTL[Pen]E[dK]; disulfide 1-7; also: homodimer, link not given here)", "values": [{"measurement": "stability in simulated intestinal fluids (SIF)", "setting": "[1]", "result": "increased stability significantly"}]}
